Test results from patent US20120331590A1.

Tests used:
[1] = target: BBMV's from FAW (brush border membrane vesicle proteins of Spodoptera frugiperda larval midgut); assay: homologous competition: unlabeled Cry1Be displacing 0.5 nM 125I Cry1Be from FAW BBMV's
[2] = target: BBMV's from FAW (brush border membrane vesicle proteins of Spodoptera frugiperda larval midgut); assay: heterologous competition: unlabeled Cry1Be against 0.5 nM 125I Cry1Da on FAW BBMV's (the sites that Cry1Da binds, not Cry1Be's own sites)
[3] = target: BBMV's from FAW (brush border membrane vesicle proteins of Spodoptera frugiperda larval midgut); assay: homologous competition: unlabeled Cry1Da displacing 0.5 nM 125I Cry1Da from FAW BBMV's
[4] = target: BBMV's from FAW (brush border membrane vesicle proteins of Spodoptera frugiperda larval midgut); assay: heterologous competition: 1,000 nM unlabeled Cry1Da against 0.5 nM 125I Cry1Be on FAW BBMV's (the sites that Cry1Be binds)

Row | Substance | IC50 [1] | IC50 [2] | IC50 [3] | percent displacement of 125I Cry1Be [4]
1 | Cry1Be (unlabeled, truncated Cry toxin) (from UniProt O85805 35-641) (ligand) | 2 nM | > 1000 nM | – | –
2 | Cry1Da (unlabeled, truncated Cry toxin) (from UniProt P19415 28-594) (ligand) | – | – | 1.5 nM | < 50%
